{"source": "patent US20230355533A1", "about": "“BIODEGRADABLE POLYCAPROLACTONE CAPSULE FOR ANTIBODY RELEASE AND DEGRADATION” (University Of Cincinnati, priority 2022, published 2023)", "key": {"[1]": {"experiment": "Bev permeability across PCL membrane, vertical permeability column", "format": "physicochemical", "conditions": "0.05 PEG PCL membrane, donor 50 mg/mL, area 0.78 cm^2", "procedure": "The permeability experiments were conducted using a vertical permeability column. The donor side was filled with 200 μL of 50 mg/mL Bev solution and the receiver side was filled with 5 mL of PBS. […] The membranes were soaked in DI water for 24 h to remove the PEG and then placed in the column without drying. Once the membrane was securely placed between the donor and receiver sections, 200 μL of the donor solution was loaded and then the opening was sealed off to reduce evaporation altering the concentration of the donor and receiver solutions. 500 μL of the receiver and 10 μL of the donor solution were removed every 72 h to check the concentration using UV-Vis. The removed solutions were replaced by fresh PBS for the receiver solution and the donor was replaced by fresh donor solution or completely replaced depending on the remaining concentration.\nAfter 12 days, the mass of Bev that permeated the membrane was plotted against time to get dQ/dt in the equation: […]\nwhere Ci is the initial concentration (donor solution concentration), P is the permeability coefficient, and A is the area of the exposed membrane."}, "[2]": {"experiment": "Bev partition coefficient in PCL membrane", "format": "physicochemical", "conditions": "equilibrium solution of 20 mg/mL", "procedure": "The partition coefficient K is required for the release kinetics model equation. […] The membranes were soaked in 200 μL of PBS for 48 h. After 48 h the membranes were blotted with a Kimwipe to remove surface liquid and then weighed to determine the wet mass of the membrane. The membranes were then dried overnight in a chemical hood. The dry membranes were then placed in 200 μL of an equilibrium Bev solution for 72 h to allow the membranes to absorb the Bev from the solution. After 72 h the membranes were removed from the equilibrium, blotted, and placed in 200 μL of fresh PBS to extract Bev for 48 h. This extraction process was repeated until the amount extracted was 10% of the first extraction. The remaining equilibrium solution and all extraction solutions were analyzed using UV-Vis to determine the Bev concentration. The partition coefficient was then determined using the equation below.\nwhere Me is the total mass extracted, W is the wet mass of the membrane, Meq is the amount of Bev left in the equilibrium solution, V is the volume of water left in the equilibrium solution, and ρ is the density of the solution."}, "[3]": {"experiment": "Bev drug release kinetics model (cylindrical reservoir)", "conditions": "calculated from Stokes-Einstein diffusion coefficient and hindrance factor", "text": "The equation used to model the release profile is\nwhere Mt is the mass released at time t, M∞, is the mass loaded in the implant, Ri is the inner radius of the implant, Ro is outer radius of the implant, De is the effective diffusivity, K is the partition coefficient, and L is the length of the implant. This equation models Fick's law of diffusion of molecules from the lumen of a cylindrical implant through a membrane wall. Ro, Ri, and L can all be measured from the implants, but De and K must be determined experimentally or calculated from other parameters that can be determined experimentally to create this model. K may be determined experimentally, as described herein. To find De, permeability, Stokes-Einstein diffusion, hindrance factor for diffusion, hindrance factor, and the restrictive factor all were determined experimentally or calculated.\nThe permeability of Bev across the PCL membrane can be described by […]\nwhere kB is the Boltzmann constant, T is the temperature in Kelvin, η is the viscosity of water at 25° C., and r is the hydrodynamic radius of Bev. The overall hindrance factor for diffusion, H, is expressed as: […]\nwhere λ is the ratio of permeant radius to pore radius and Kt, the hinderance factor, is calculated by: […]\nThe last value that needs to be determined for Equation 3 is effective diffusivity (De). De can be determined from the equation: […]"}, "TNF-α stimulated HUVECs": {"test_system": "TNF-α stimulated HUVECs", "experiment": "IL-6 ELISA assay", "format": "cell-based, Human", "conditions": "Dex 33 μM, 24 h pretreatment, then 20 ng/mL TNF-α 24 h", "procedure": "Human primary umbilical vein endothelial cells (HUVECs) were maintained in EBMTM-2 Basal Medium and EGMTM-2 SingleQuots™ Supplements (Lonza, Switzerland). HUVECs were grown in the cell incubator containing 5% CO2 at 37° C. When the cells were grown to 90% confluence, they were inoculated in 24-well plates. Briefly, 0.4 mL of HUVECs suspensions (8×104 HUVECs per well) were seeded in 24-well plates and incubated at 37° C, 5% CO2 for 24 h. […] After 24 h, all the conditions except the medium only were incubated with 20 ng/mL TNF-α for 24 h. […] At the end of experiments, the cell medium was collected and centrifuged at 2,000×g for 10 min to remove the particulate/debris materials. Then, supernatant was collected and stored at −20° C. until used. Each sample was pre-diluted using a standard dilution buffer to keep the sample concentrations within the range of standard curve. The concentration of pro-inflammatory cytokine (IL-6) in the cell culture supernatant was analyzed by the ELISA assay according to the manufacturer's recommendation (Invitrogen® human IL-6 ELISA kit). All tests were done in triplicate."}}}
{"substance": "Bevacizumab", "values": [{"measurement": "Bev permeated across the membrane", "setting": "[1]", "value": 42.5, "unit": "µg/day"}, {"measurement": "partition coefficient K", "setting": "[2]", "value": 0.515}, {"measurement": "effective diffusion coefficient De", "setting": "[3]", "value": "5.59 × 10^−6 cm^2/day"}]}
{"substance": "Dexamethasone sodium phosphate [free Dex]", "values": [{"measurement": "IL-6 level in cell culture medium compared to TNF-α stimulated HUVECs (condition 2)", "setting": "TNF-α stimulated HUVECs", "value": "not significantly decreased"}]}
